# Measurements from the supplement of paper PMC11780869.
# System: Bacillus subtilis
# Test: cleaved RNA product abundance (RNA/gDNA barcode ratio) relative to median wild-type variant (ratio to wild type); higher = more accumulation of the downstream cleavage product
# Settings: cleavage site: cggR-gapA (positions -7 to +36 mutated)
# In short: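 Oligos with a 9% error rate were used to build barcoded, mutagenized RNase Y cleavage-site windows within truncated aprE or tetM reporter mRNAs, which were integrated into the B. subtilis chromosome. Cultures were grown in LB at 37°C between OD600 0.0003 and 0.3. Cleaved RNA was gel-selected, reverse transcribed and barcode-sequenced, as were genomic DNA barcodes, and UMIs were collapsed. Cleaved product abundance is the scaled RNA:gDNA barcode ratio, with the median construct carrying the unmutated site as reference.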
# [1] = experiment (reporter, strain, medium): exp 4a: truncated aprE reporter, strain BJT201 with 2% xylose (RNase J1 expressed)
# [2] = experiment (reporter, strain, medium): exp 2b: truncated aprE reporter, strain BJT200
sequence,measurement,setting,value
ACAGACGAAGGAGCCGCAAATAAGTTATTAAGGGATGAATAATCCCACAATATAAATAACTCTCACTTATTTAAA,cleaved RNA product abundance,[1],0.22
ACAGACGAAGGAGCCGCAAATAAGTTATTAAGGGATGAATAATCCCACAATATAAATATCTCTCACTTATTTAAA,cleaved RNA product abundance,[2],0.233
same,cleaved RNA product abundance,[1],0.187
ACAGACGAAGGAGCCGCAAATAAGTTATTAAGGGATGAATAATCCCCCAATATAAATATCTCTCACTTATTTAAA,cleaved RNA product abundance,[1],0.23
ACAGACGAAGGAGCCGCAAATAAGTTATTAAGGGATGAATAATCCCTAAATATAAATATCTCTCACTTATTTAAA,cleaved RNA product abundance,[2],0.668
same,cleaved RNA product abundance,[1],0.865
ACAGACGAAGGAGCCGCAAATAAGTTATTAAGGGATGAATAATCCCTCAAAATAAATATCTCTCACTTATTTAAA,cleaved RNA product abundance,[2],0.34
same,cleaved RNA product abundance,[1],0.322
ACAGACGAAGGAGCCGCAAATAAGTTATTAAGGGATGAATAATCCCTCAACATAAATATCTCTCACTTATTTAAA,cleaved RNA product abundance,[1],0.401
ACAGACGAAGGAGCCGCAAATAAGTTATTAAGGGATGAATAATCCCTCAAGATAAATATCTCTCACTTATTTAAA,cleaved RNA product abundance,[1],0.373
ACAGACGAAGGAGCCGCAAATAAGTTATTAAGGGATGAATAATCCCTCAATAAAAATATCTCTCACTTATTTAAA,cleaved RNA product abundance,[1],0.143
ACAGACGAAGGAGCCGCAAATAAGTTATTAAGGGATGAATAATCCCTCAATACAAATATCTCTCACTTATTTAAA,cleaved RNA product abundance,[1],0.106
ACAGACGAAGGAGCCGCAAATAAGTTATTAAGGGATGAATAATCCCTCAATATAAACATCTCTCACTTATTTAAA,cleaved RNA product abundance,[2],0.822
same,cleaved RNA product abundance,[1],0.822
ACAGACGAAGGAGCCGCAAATAAGTTATTAAGGGATGAATAATCCCTCAATATAAAGATCTCTCACTTATTTAAA,cleaved RNA product abundance,[2],0.535
same,cleaved RNA product abundance,[1],0.565
ACAGACGAAGGAGCCGCAAATAAGTTATTAAGGGATGAATAATCCCTCAATATAAATAACTCTCACTTATTTAAA,cleaved RNA product abundance,[1],0.44
ACAGACGAAGGAGCCGCAAATAAGTTATTAAGGGATGAATAATCCCTCAATATAAATACCTCTCACTTATTTAAA,cleaved RNA product abundance,[1],0.538
ACAGACGAAGGAGCCGCAAATAAGTTATTAAGGGATGAATAATCCCTCAATATAAATATATCTCACTTATTTAAA,cleaved RNA product abundance,[1],0.814
ACAGACGAAGGAGCCGCAAATAAGTTATTAAGGGATGAATAATCCCTCAATATAAATATCTCTCACTTATTTAAA,cleaved RNA product abundance,[2],0.972
same,cleaved RNA product abundance,[1],0.932
same,cleaved RNA product abundance,"experiment (reporter, strain, medium): exp 6: tetM reporter, strain 168",1.07
ACAGACGAAGGAGCCGCAAATAAGTTATTAAGGGATGAATAATCCCTCAATATAAATGTCTCTCACTTATTTAAA,cleaved RNA product abundance,[1],0.45
ACAGACGAAGGAGCCGCAAATAAGTTATTAAGGGATGAATAATCCCTCAATATAAATTTCTCTCACTTATTTAAA,cleaved RNA product abundance,[1],0.862
ACAGACGAAGGAGCCGCAAATAAGTTATTAAGGGATGAATAATCCCTCAATATAATTATCTCTCACTTATTTAAA,cleaved RNA product abundance,[2],0.515
same,cleaved RNA product abundance,[1],0.477
ACAGACGAAGGAGCCGCAAATAAGTTATTAAGGGATGAATAATCCCTCAATATACATATCTCTCACTTATTTAAA,cleaved RNA product abundance,[2],0.727
same,cleaved RNA product abundance,[1],0.64
ACAGACGAAGGAGCCGCAAATAAGTTATTAAGGGATGAATAATCCCTCAATATAGATATCTCTCACTTATTTAAA,cleaved RNA product abundance,[2],0.715
same,cleaved RNA product abundance,[1],0.649
ACAGACGAAGGAGCCGCAAATAAGTTATTAAGGGATGAATAATCCCTCAATATATATATCTCTCACTTATTTAAA,cleaved RNA product abundance,[1],0.9
ACAGACGAAGGAGCCGCAAATAAGTTATTAAGGGATGAATAATCCCTCAATATTAATATCTCTCACTTATTTAAA,cleaved RNA product abundance,[1],0.156
ACAGACGAAGGAGCCGCAAATAAGTTATTAAGGGATGAATAATCCCTCAATGTAAATATCTCTCACTTATTTAAA,cleaved RNA product abundance,[1],0.178
ACAGACGAAGGAGCCGCAAATAAGTTATTAAGGGATGAATAATCCCTCAATTTAAATATCTCTCACTTATTTAAA,cleaved RNA product abundance,[1],0.136
ACAGACGAAGGAGCCGCAAATAAGTTATTAAGGGATGAATAATCCCTCACTATAAATATCTCTCACTTATTTAAA,cleaved RNA product abundance,[2],0.193
same,cleaved RNA product abundance,[1],0.218
ACAGACGAAGGAGCCGCAAATAAGTTATTAAGGGATGAATAATCCCTCAGTATAAATATCTCTCACTTATTTAAA,cleaved RNA product abundance,[1],0.303
ACAGACGAAGGAGCCGCAAATAAGTTATTAAGGGATGAATAATCCCTCATTATAAATATCTCTCACTTATTTAAA,cleaved RNA product abundance,[1],0.356
ACAGACGAAGGAGCCGCAAATAAGTTATTAAGGGATGAATAATCCCTCCATATAAATATCTCTCACTTATTTAAA,cleaved RNA product abundance,[2],0.274
same,cleaved RNA product abundance,[1],0.333
ACAGACGAAGGAGCCGCAAATAAGTTATTAAGGGATGAATAATCCCTCGATATAAATATCTCTCACTTATTTAAA,cleaved RNA product abundance,[2],0.459
ACAGACGAAGGAGCCGCAAATAAGTTATTAAGGGATGAATAATCCCTCTATATAAATATCTCTCACTTATTTAAA,cleaved RNA product abundance,[2],0.34
same,cleaved RNA product abundance,[1],0.439
ACAGACGAAGGAGCCGCAAATAAGTTATTAAGGGATGAATAATCCCTTAATATAAATATCTCTCACTTATTTAAA,cleaved RNA product abundance,[1],0.452
ACAGACGAAGGAGCCGCAAATAAGTTATTAAGGGATGAATAATCCGTCAATATAAATATCTCTCACTTATTTAAA,cleaved RNA product abundance,[1],0.299
ACAGACGAAGGAGCCGCAAATAAGTTATTAAGGGATGAATAATCCTTCAATATAAATATCTCTCACTTATTTAAA,cleaved RNA product abundance,[2],0.395
ACAGACGAAGGAGCCGCAAATAAGTTATTAAGGGATGAATAATCGCTCAATATAAATATCTCTCACTTATTTAAA,cleaved RNA product abundance,[1],0.121
ACAGACGAAGGAGCCGCAAATAAGTTATTAAGGGATGAATAATCTCTCAATATAAATATCTCTCACTTATTTAAA,cleaved RNA product abundance,[2],0.613
same,cleaved RNA product abundance,[1],0.758
ACAGACGAAGGAGCCGCAAATAAGTTATTAAGGGATGAATAATGCCTCAATATAAATATCTCTCACTTATTTAAA,cleaved RNA product abundance,[1],0.145
ACAGACGAAGGAGCCGCAAATAAGTTATTAAGGGATGAATAATTCCTCAATATAAATATCTCTCACTTATTTAAA,cleaved RNA product abundance,[1],0.547
ACAGACGAAGGAGCCGCAAATAAGTTATTAAGGGATGAATACTCCCTCAATATAAATATCTCTCACTTATTTAAA,cleaved RNA product abundance,[2],0.682
same,cleaved RNA product abundance,[1],0.538
ACAGACGAAGGAGCCGCAAATAAGTTATTAAGGGATGAATAGTCCCTCAATATAAATATCTCTCACTTATTTAAA,cleaved RNA product abundance,[2],0.852
same,cleaved RNA product abundance,[1],0.887
ACAGACGAAGGAGCCGCAAATAAGTTATTAAGGGATGAATATTCCCTCAATATAAATATCTCTCACTTATTTAAA,cleaved RNA product abundance,[2],0.769
same,cleaved RNA product abundance,[1],1.07
ACAGACGAAGGAGCCGCAAATAAGTTATTAAGGGATGAATCATCCCTCAATATAAATATCTCTCACTTATTTAAA,cleaved RNA product abundance,[2],0.769
same,cleaved RNA product abundance,[1],0.899
ACAGACGAAGGAGCCGCAAATAAGTTATTAAGGGATGAATTATCCCTCAATATAAATATCTCTCACTTATTTAAA,cleaved RNA product abundance,[2],0.711
same,cleaved RNA product abundance,[1],0.737
ACAGACGAAGGAGCCGCAAATAAGTTATTAAGGGATGATTAATCCCTCAATATAAATATCTCTCACTTATTTAAA,cleaved RNA product abundance,[2],0.783
same,cleaved RNA product abundance,[1],0.697
ACAGACGAAGGAGCCGCAAATAAGTTATTAAGGGATGCATAATCCCTCAATATAAATATCTCTCACTTATTTAAA,cleaved RNA product abundance,[1],1.1
ACAGACGAAGGAGCCGCAAATAAGTTATTAAGGGATGTATAATCCCTCAATATAAATATCTCTCACTTATTTAAA,cleaved RNA product abundance,[1],0.901
ACAGACGAAGGAGCCGCAAATAAGTTATTAAGGGATTAATAATCCCTCAATATAAATATCTCTCACTTATTTAAA,cleaved RNA product abundance,[2],0.863
same,cleaved RNA product abundance,[1],0.881
ACAGACGAAGGAGCCGCAAATAAGTTATTAAGGGCTGAATAATCCCTCAATATAAATATCTCTCACTTATTTAAA,cleaved RNA product abundance,[1],0.627
ACAGACGAAGGAGCCGCAAATAAGTTATTAAGGGGTGAATAATCCCTCAATATAAATATCTCTCACTTATTTAAA,cleaved RNA product abundance,[1],0.273
ACAGACGAAGGAGCCGCAAATAAGTTATTAAGGGTTGAATAATCCCTCAATATAAATATCTCTCACTTATTTAAA,cleaved RNA product abundance,[2],0.425
same,cleaved RNA product abundance,[1],0.423
ACAGACGAAGGAGCCGCAAATAAGTTATTAAGGTATGAATAAACCCTCAATATAAATATCTCTCACTTATTTAAA,cleaved RNA product abundance,[2],0.118
ACAGACGAAGGAGCCGCAAATAAGTTATTAAGGTATGAATAATCCCTCAATATAAATATCTCTCACTTATTTAAA,cleaved RNA product abundance,[2],0.169
same,cleaved RNA product abundance,[1],0.139
ACAGACGAAGGAGCCGCAAATAAGTTATTAAGGTATGAATAATCCCTCAATATAAATTTCTCTCACTTATTTAAA,cleaved RNA product abundance,[1],0.159
ACAGACGAAGGAGCCGCAAATAAGTTATTAAGGTTTGAATAATCCCTCAATATAAATATCTCTCACTTATTTAAA,cleaved RNA product abundance,[1],0.0913
ACAGACGAAGGAGCCGCAAATAAGTTATTAAGTGATGAATAATCCCTCAATATAAATATCTCTCACTTATTTAAA,cleaved RNA product abundance,[2],0.109
same,cleaved RNA product abundance,[1],0.107
ACAGACGAAGGAGCCGCAAATAAGTTATTAATGAATGAATAATCCCTCAATATAAATATCTCTCACTTATTTAAA,cleaved RNA product abundance,[1],0.107
ACAGACGAAGGAGCCGCAAATAAGTTATTAATGGATGAATAATCCCTCAATATAAATATCTCTCACTTATTTAAA,cleaved RNA product abundance,[2],0.123
same,cleaved RNA product abundance,[1],0.184
ACAGACGAAGGAGCCGCAAATAAGTTATTAATGGATGAATAATCCCTCATTATAAATATCTCTCACTTATTTAAA,cleaved RNA product abundance,[1],0.135
ACAGACGAAGGAGCCGCAAATAAGTTATTACGGGATGAATAATCCCTCAATATAAATATCTCTCACTTATTTAAA,cleaved RNA product abundance,[1],0.36
ACAGACGAAGGAGCCGCAAATAAGTTATTAGGGGATGAATAATCCCTCAATATAAATATCTCTCACTTATTTAAA,cleaved RNA product abundance,[2],0.603
